# Measurements taken from patent US20120128678A1 (FORERUNNER PHARMA RESEARCH, published 2012).
# B1: chi.TM191 (FTKO), low-fucose anti-TMPRSS11E mouse-human chimeric antibody (antibody, human IgG1, kappa, V domains shown)
# VH: EVKLVESGGGLVKPGGSLKLSCAASGFTFSDYGMAWVRQAPGKGPEWVAFISNLAYSSYYADTVTGRFTISRENAKNTLYLEMSSLRSEDSAMYYCARRIFDYDGDGPYEDYWGQGTSVTVSS
# VL: QIVLTQSPAIMSASPGEKVTLTCSATSSVSSRYVHWYQQKSGASPKLWIYGTSNLASGVPARFSGSGSGTSYSLTISSVEAEDAATYYCQQYHNDPPTFGAGTKLELKR
# modifications: sugar chain free from alpha-1,6 core-fucose (produced in CHO_FTKO cells)
# notes: also called low-fucose chimeric TM191
# B2: TM191 (mouse hybridoma antibody) (antibody, V domains shown)
# VH: B1 VH
# VL: QIVLTQSPAIMSASPGEKVTLTCSATSSVSSRYVHWYQQKSGASPKLWIYGTSNLASGVPARFSGSGSGTSYSLTISSVEAEDAATYYCQQYHNDPPTFGAGTKLELK
# notes: Mouse IgG1 kappa
# B3: chi.TM191 (DG), anti-TMPRSS11E mouse-human chimeric antibody (antibody, V domains shown)
# VH: B1 VH
# VL: B1 VL
# notes: Human IgG1/kappa constant regions, produced in DG44 CHO cells; also called chimeric TM191
# B4: EA230 (mouse hybridoma antibody) (antibody, V domains shown)
# VH: EVKLEESGGALVQPGGSMKLSCVASGFTVSNYWMSWVRQSPEKGLEWVAEVRLKSNNYVTHYAESVKGRFTISRDDSKSSVYLQMNNLRPEDTGIYYCTPFAYWGQGTLVTVSA
# VL: QIVLTQSPAILSASPGEKVTLTCSANSSVSSSYLYWHQQKPGSSPKLWIYRTSKLASGVPARFSGSGSGTSYSLTISSMEAEDAASYFCHQWDTYPPTFGGGTKLEIK
# Columns and labels:
# [1] = target: T1, human TMPRSS11E, endogenous, on cancer cell lines and in clinical cancer tissues (human, UniProt Q9UL52 1-423); assay: flow cytometry on cancer cell lines h2009, h2087, ME-180, colo201 (FIG. 3)
# T1 construct: Endogenous protein of h2009, h2087, ME-180 and colo201 cells and of lung, uterine cervix and esophagus cancer tissue sections; also called DESC1
# T1 sequence: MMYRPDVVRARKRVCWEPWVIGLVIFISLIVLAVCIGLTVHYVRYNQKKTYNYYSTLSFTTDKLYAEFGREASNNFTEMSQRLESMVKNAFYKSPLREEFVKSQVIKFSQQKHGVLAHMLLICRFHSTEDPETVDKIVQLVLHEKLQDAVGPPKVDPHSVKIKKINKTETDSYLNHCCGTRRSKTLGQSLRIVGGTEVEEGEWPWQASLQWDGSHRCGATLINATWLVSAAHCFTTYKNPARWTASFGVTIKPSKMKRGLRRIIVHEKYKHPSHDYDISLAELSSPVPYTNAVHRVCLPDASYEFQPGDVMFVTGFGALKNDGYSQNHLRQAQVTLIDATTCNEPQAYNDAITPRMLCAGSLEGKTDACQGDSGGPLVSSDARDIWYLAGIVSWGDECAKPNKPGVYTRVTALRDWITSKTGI
# Description: (§1) The TMPRSS11E-constantly expressing cells thus constructed were evaluated for binding to the parental strain thereof by flow cytometry. The anti-TMPRSS11E antibody diluted to an appropriate concentration was added to cells corresponding to 5×10⁵ and reacted for 1 hour on ice. The cells were washed by centrifugation. Then, FITC-labeled anti-human IgG antibodies were added thereto and reacted for 1 hour on ice. The cells were washed by centrifugation and then suspended in a medium containing 2 μg/mL propidium iodide, and the suspension was applied to FACS Calibur (Becton, Dickinson and Company). […] The chimeric antibodies and low-fucose chimeric antibodies had equivalent avidity. Next, avidity to various cancer cell lines was evaluated by flow cytometry.
# [2] = target: T2, human TMPRSS11E, full-length, forced expression on cells (DG44, Ba/F3, SK-Hep-1) (human, UniProt Q9UL52 1-423); assay: flow cytometry on TMPRSS11E-expressing Ba/F3 cells, FITC anti-human IgG detection (FIG. 2)
# T2 construct: also called DESC1; BaF/TMPRSS11E; not shown: C-terminal tag added through the antisense primer
# T2 sequence: T1 sequence
# Description: as §1
# [3] = target: T2, human TMPRSS11E, full-length, forced …; assay: flow cytometry on TMPRSS11E-expressing SK-Hep-1 cells (FIG. 9)
# [4] = target: T3, fusion protein of MBP and TMPRSS11E SEA domain (human, UniProt Q9UL52 42-191); assay: screening ELISA on immobilized MBP-SEA domain fusion protein
# T3 construct: Expressed in E. coli, purified and immobilized for the screening ELISA; also called fusion proteins of MBP and SEA domains
# T3 sequence: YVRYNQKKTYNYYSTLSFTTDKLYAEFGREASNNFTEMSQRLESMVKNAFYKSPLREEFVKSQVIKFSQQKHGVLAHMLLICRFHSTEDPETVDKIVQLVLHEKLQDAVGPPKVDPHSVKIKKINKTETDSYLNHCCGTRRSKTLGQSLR
# Description: This fusion protein was used to immunize Balb/c mice or MRL/lpr mice. Hybridomas were established in the same way as above. New England Biolabs Inc. pMALc2x vectors were used in screening, which was performed by ELISA using fusion proteins of MBP and SEA domains that were expressed in E. coli, then purified, and immobilized on a solid phase. […] The nucleotide sequence of the EA230 heavy chain variable region is shown in SEQ ID NO: 53, and its amino acid sequence is shown in SEQ ID NO: 54. The nucleotide sequence of the EA230 light chain variable region is shown in SEQ ID NO: 55, and its amino acid sequence is shown in SEQ ID NO: 56.
# [5] = target: T2, human TMPRSS11E, full-length, forced …; assay: immunoblot of BaF/TMPRSS11E cell lysate, 0.5 ug/mL EA230 (FIG. 7)
# Description: (§2) Cell lysates of Ba/F3, TMPRSS11E-expressing Ba/F3 (BaF/TMPRSS11E), a TMPRSS11E-negative cancer cell line VMRC-LCD, and TMPRSS11E-positive cancer cell lines h2009 and ME-180 were prepared. 50 μL of NP-40 Lysis Buffer (0.5% (v/v) Nonidet P40, 20 mM Tris-HCl (pH 7.5), 150 mM NaCl, 5 mM EDTA) was added to 1×10⁶ cells and left at 4° C. for 15 minutes. Then, after centrifugation (14,000 rpm, 15 min), the supernatant was used as lysates. The lysates corresponding to 2×10⁵ cells were separated by SDS-PAGE and then transferred to Immobilon-P (Millipore Corp.) using Trans-Blot SD Semi-Dry Electrophoretic Transfer Cell (Bio-Rad Laboratories, Inc.). The membrane was gently washed with TBS-T (0.05% Tween 20, TBS) and then shaken for 1 hour in TBS-T containing 5% skim milk. After shaking for approximately 10 minutes in TBS-T, 0.5 μg/mL EA230 antibodies diluted with TBS-T containing 1% skim milk were added to the membrane, which was then shaken for 1 hour. […] Since the presumed molecular weight of TMPRSS11E is 47.7 kDa, it seemed that TMPRSS11E that underwent sugar chain modification was probably detected. This means that TMPRSS11E can be detected specifically by immunoblot using EA230.
# [6] = target: T1, human TMPRSS11E, endogenous, on cancer …; assay: immunoblot of lysates of cancer cell lines (h2009, ME-180), 0.5 ug/mL EA230 (FIG. 7)
# Description: as §2
Binder,binding result [1],binding result [2],also measured
B1,binds,binds,–
B2,–,–,binding result [3]: binds
B3,binds,binds,–
B4,–,–,binding result [4]: binds; binding result [5]: binds; binding result [6]: binds
